This is an account of results in patent CN113121684A (TIANJIN JIKUN PHARMACEUTICAL TECH CO LTD, dated 2021).

The target in this assay is T1, 人源FSTL1蛋白 (卵泡抑素样蛋白1, Follistatin-like 1) (human, UniProt Q12841 21-308, limits assumed).
T1 construct: Soluble protein, used as analyte in SPR and as labelled ligand in MST; The construct is not described; also called 抗原; 靶点蛋白
T1 sequence (looked up): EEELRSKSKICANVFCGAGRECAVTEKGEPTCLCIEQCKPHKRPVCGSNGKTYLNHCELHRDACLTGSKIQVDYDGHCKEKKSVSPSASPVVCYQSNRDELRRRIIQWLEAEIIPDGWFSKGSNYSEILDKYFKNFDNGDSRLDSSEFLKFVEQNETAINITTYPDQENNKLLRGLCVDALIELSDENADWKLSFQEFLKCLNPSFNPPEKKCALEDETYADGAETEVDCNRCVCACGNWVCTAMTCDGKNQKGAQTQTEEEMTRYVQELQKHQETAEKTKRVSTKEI
The experiment in a line: SPR (Biacore T200), antibody amine-coupled on CM5 chip, FSTL1 protein injected.

B1: 人源FSTL1中和性抗体JK07 (全长IgG) (antibody, V domains shown)
VH: QVQLVQSGAEVKKPGSTVKVSCKSSEGTFNNYGISWIRQAPGQGLEWMGGVIPIIGIGNFPQKFQDRVTMTADKFTGTAYMELSSLRSEDTAVYYCARHLGGRNSYDVFDIWGQGTLVTVSS
VL: EIVLTQSPLSLPVTLGQTASISCRSSHSLVQSNGNTYLTWFQQRPGQSPRRLIYKVSSRDSGVPDRFSGSGSGTDFTLKISRVEAEDVGVYYCMQARQTPWTFGQGTKVEIKR
notes: also called JK07抗体
The Kd is the concentration at which binding is half-saturated. Low values mean tighter binding, high ones weaker binding. B1 returned an equilibrium dissociation constant (Kd) of 6.17 nM.
